1 substance from paper PMC10130221 can be followed below.

What all share (assay): filter binding
Data set [1] deals with TrmB D144A (Escherichia coli). Particulars: none (in vitro transcribed), becomes m7G46 during incubation with SAM, TAKEM4: 50 mM Tris-HCl pH 7.5, 70 mM NH4Cl, 30 mM KCl, 1 mM EDTA, 4 mM MgCl2, filter binding 20 nM tRNA, 10 min (temperature not given in the material) ….
For data set [2], the system named is TrmB R155A (Escherichia coli). To be noted: max. about 30% bound, none (in vitro transcribed), becomes m7G46 during incubation with SAM, TAKEM4: 50 mM Tris-HCl pH 7.5, 70 mM NH4Cl, 30 mM KCl, 1 mM EDTA, 4 mM MgCl2, filter binding 20 nM tRNA, 10 min (temperature not given in the material) ….
Data set [3] relates to TrmB R26A (Escherichia coli). Particulars: none (in vitro transcribed), becomes m7G46 during incubation with SAM, TAKEM4: 50 mM Tris-HCl pH 7.5, 70 mM NH4Cl, 30 mM KCl, 1 mM EDTA, 4 mM MgCl2, filter binding 20 nM tRNA, 10 min (temperature not given in the material) ….
The subject of data set [4] is TrmB T217A (Escherichia coli). To be noted: none (in vitro transcribed), becomes m7G46 during incubation with SAM, TAKEM4: 50 mM Tris-HCl pH 7.5, 70 mM NH4Cl, 30 mM KCl, 1 mM EDTA, 4 mM MgCl2, filter binding 20 nM tRNA, 10 min (temperature not given in the material) ….
Data set [5] has as its system TrmB WT (Escherichia coli). To be noted: none (in vitro transcribed), becomes m7G46 during incubation with SAM, TAKEM4: 50 mM Tris-HCl pH 7.5, 70 mM NH4Cl, 30 mM KCl, 1 mM EDTA, 4 mM MgCl2, filter binding 20 nM tRNA, 10 min (temperature not given in the material) ….

[3H]tRNAPhe (unmodified transcript): the dissociation constant Kd in data set [1] (50 uM SAM) came to 0.8 µM; in data set [1] (no SAM), 2.5 µM; in data set [2] (50 uM SAM) it was 5.8 µM; in data set [2] (no SAM), 10 µM; in data set [3] (50 uM SAM), 5.1 µM; in data set [3] (no SAM, max. about 20% bound), 6.4 µM. Further, the Kd in data set [4] (50 uM SAM) was found to be 2.6 µM; in data set [4] (no SAM), 5.4 µM; in data set [5] (50 uM SAM, tRNA becomes m7G46 product in 10 min) it was 2.1 µM; in data set [5] (no SAM), 6.6 µM.
